Experiment [1] deals with T1, cynomolgus SIRPβ1 (XP_005568598) extracellular domain + His-tag (cynomolgus monkey).
T1 construct: SPR analyte; also called Cyno SIRPβ1 XP_005568598; cynoSIRPβ1; not shown: His-tag
T1 chain: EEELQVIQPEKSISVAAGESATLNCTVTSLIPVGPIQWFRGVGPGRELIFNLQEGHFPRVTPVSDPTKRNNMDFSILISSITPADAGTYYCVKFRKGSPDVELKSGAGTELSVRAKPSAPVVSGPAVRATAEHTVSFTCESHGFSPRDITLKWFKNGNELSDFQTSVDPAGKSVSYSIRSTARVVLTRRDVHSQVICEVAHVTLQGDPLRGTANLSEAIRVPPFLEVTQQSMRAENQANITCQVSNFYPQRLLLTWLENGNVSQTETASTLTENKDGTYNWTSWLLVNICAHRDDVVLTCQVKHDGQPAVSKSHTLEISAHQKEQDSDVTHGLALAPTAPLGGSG
Briefly: SPR. A digest of the protocol: (§1)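 In HBS-EP+ (1×), captured antibodies are exposed to a twofold concentration series of SIRP extracellular domain carrying a His tag, using 300 s contact at 30 μl/min and a 600 s dissociation window.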
In general terms: In SPR one partner is held on a chip, and binding of the other changes the refractive index at the surface.

Experiment [2] has as its target T2, full-length cyno SIRPα (XP_015313155) on CHO-K1 cells, clone P3HD10 (cynomolgus monkey).
T2 chain: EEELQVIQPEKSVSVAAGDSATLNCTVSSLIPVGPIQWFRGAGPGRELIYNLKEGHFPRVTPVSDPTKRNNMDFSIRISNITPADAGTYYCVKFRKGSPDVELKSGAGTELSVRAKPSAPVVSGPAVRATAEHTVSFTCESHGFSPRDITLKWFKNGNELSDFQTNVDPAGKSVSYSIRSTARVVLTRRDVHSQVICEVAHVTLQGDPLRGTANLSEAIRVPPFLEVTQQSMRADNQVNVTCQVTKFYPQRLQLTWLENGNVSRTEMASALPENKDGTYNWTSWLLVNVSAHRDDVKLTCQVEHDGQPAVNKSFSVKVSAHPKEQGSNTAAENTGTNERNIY
Put plainly: flow cytometry, CHO-K1 cells. The procedure: (§2) Antibody binding to cells expressing cynomolgus (cyno) SIRPα was evaluated by flow cytometry. CHO-K1 cells expressing full-length cyno SIRPα; derived from protein sequence accession numbers (A) EGM-02252; (B) XP_015313155; or (C) NP_001271679, are blocked with donkey IgG and incubated on ice with increasing concentrations of antibodies for 60 minutes, washed and stained with AF647-conjugated donkey F(ab′)₂ anti-human IgG secondary reagent. Cells are washed, fixed, and analyzed by flow cytometry. Median fluorescent intensity is determined and used as a measure of antibody binding.
In general terms: Flow cytometry measures light scatter and fluorescence of single cells or particles in a stream.

Experiment [3] addresses T3, full-length cyno SIRPα (NP_001271679) on CHO-K1 cells, clone HC6 (cynomolgus monkey, UniProt A0A2K5VYQ9).
T3 construct: whole, on cells
T3 sequence: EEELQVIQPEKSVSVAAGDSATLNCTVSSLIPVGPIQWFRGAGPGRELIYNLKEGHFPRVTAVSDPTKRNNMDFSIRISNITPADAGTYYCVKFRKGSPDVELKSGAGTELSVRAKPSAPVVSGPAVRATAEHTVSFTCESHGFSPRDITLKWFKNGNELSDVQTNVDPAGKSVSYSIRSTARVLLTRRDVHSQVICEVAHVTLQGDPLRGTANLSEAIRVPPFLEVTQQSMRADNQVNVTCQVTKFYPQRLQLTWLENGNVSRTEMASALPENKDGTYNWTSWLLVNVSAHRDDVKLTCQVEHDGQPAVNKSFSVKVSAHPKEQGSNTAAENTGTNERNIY
Put plainly: flow cytometry, CHO-K1 cells. The protocol: as §2

Experiment [4] addresses T4, cynomolgus SIRPα extracellular domain + His-tag (NP_001271679) (cynomolgus monkey).
T4 construct: also called CySIRPα NP_001271679; cynoSIRPα
T4 chain: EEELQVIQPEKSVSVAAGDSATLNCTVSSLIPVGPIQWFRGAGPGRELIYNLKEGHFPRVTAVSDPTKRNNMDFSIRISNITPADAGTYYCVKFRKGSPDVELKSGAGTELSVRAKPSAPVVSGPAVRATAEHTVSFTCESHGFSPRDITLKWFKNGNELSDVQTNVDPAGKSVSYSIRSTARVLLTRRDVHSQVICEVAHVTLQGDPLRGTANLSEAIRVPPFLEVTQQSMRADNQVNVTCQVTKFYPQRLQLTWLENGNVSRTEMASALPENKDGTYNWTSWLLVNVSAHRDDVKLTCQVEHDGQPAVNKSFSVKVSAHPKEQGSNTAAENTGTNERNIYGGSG
Put plainly: SPR, Ab captured, ECD-His analyte. A digest of the protocol:
as §1

Experiment [5] has as its target T5, cynomolgus SIRPα extracellular domain + His-tag (XP_015313155) (cynomolgus monkey).
T5 construct: also called CySIRPα XP_015313155; cynoSIRPα
T5 chain: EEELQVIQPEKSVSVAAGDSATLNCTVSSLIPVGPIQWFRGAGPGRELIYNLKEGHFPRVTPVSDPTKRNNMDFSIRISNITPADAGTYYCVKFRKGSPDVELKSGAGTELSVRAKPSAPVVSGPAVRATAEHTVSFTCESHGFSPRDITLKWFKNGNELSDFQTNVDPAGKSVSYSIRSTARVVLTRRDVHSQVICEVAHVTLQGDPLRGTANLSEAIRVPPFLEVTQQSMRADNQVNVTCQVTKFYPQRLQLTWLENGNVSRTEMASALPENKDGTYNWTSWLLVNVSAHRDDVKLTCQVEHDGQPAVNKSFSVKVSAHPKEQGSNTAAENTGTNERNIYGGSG
Put plainly: SPR, Ab captured, ECD-His analyte. A digest of the protocol:
as §1

The target in experiment [6] is T6, cynomolgus SIRPβ1v3 extracellular domain + His-tag (XP_005568593) (cynomolgus monkey).
T6 construct: also called Cyno SIRPβ1v3; cynoSIRPβ1v3
T6 chain: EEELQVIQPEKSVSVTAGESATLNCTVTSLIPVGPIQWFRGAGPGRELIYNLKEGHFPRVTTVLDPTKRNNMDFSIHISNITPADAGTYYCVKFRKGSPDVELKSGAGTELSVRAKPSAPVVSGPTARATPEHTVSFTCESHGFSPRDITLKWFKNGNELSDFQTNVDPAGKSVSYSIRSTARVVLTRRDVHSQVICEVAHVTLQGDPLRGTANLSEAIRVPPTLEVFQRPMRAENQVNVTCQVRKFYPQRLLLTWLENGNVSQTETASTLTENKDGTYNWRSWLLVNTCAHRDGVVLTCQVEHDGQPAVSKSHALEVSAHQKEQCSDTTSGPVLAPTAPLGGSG
Put plainly: SPR, Ab captured, ECD-His analyte. A digest of the protocol:
as §1

B1: Antibody E (antibody, human IgG1, kappa, L234A L235A)
heavy: not shown
light: DIVMTQSPLSLPVTPGEPASISCKSSQSLLYSNGYNYLDWYLQRPGQSPQLLIYLGSNRASGVPDRFSGSGSGTDFTLKISRVEAEDVGVFYCMQALQTPLTFGGGTKVEIKRTVAAPSVFIFPPSDEQLKSGTASVVCLLNNFYPREAKVQWKVDNALQSGNSQESVTEQDSKDSTYSLSSTLTLSKADYEKHKVYACEVTHQGLSSPVTKSFNRGEC
Regarding B1, the binding result in experiment [1] is given as “no binding (tested: 1000 nM)”.

B2: Antibody E22 (antibody, human IgG1, kappa, L234A L235A, V domains shown)
VH: QVQLQESGPGLVKPSETLSLTCTVSGGSIRDYYWSWIRQPPGKGLEWIGFIYYNGRTFYQSSLKSRVTISLDTSKNQFSLKMTSVTAADTAVYYCARVRAYSGIGLDGTDVWGQGTTVTVSS
VL: DIVMTQSPLSLPVTPGEPASISCRSSQSLLYSTGYTYLDWYLQRPGQSPQLLIYGGSSRASGVPDRFSGSGSGTDFTLKISRVEAEDVGVFYCGQALQTPLTFGQGTKVEIKR
B2: the binding result in experiment [1] is “no binding (tested: 1000 nM)”.

B3: Antibody A (antibody, human IgG1, kappa, L234A L235A)
heavy: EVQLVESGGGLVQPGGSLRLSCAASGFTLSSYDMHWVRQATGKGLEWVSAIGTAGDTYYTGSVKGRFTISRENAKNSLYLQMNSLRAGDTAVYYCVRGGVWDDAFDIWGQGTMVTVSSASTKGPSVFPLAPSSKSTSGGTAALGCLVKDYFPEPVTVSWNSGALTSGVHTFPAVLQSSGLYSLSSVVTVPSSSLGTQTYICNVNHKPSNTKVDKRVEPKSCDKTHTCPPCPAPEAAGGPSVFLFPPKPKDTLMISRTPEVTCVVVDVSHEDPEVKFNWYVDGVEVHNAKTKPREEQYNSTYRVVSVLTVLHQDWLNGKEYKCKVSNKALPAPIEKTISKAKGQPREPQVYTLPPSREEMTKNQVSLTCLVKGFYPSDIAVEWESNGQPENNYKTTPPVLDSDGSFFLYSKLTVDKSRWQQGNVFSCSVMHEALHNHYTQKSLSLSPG
light: DIQMTQSPSSLSASVGDRVTITCRASQDINNYLAWFQQKPGKAPKSLIYTASSLHSGVPSKFSGSGSGTDFTLTISSLQPEDFATYYCQQYVSYPYTFGQGTKLEIKRTVAAPSVFIFPPSDEQLKSGTASVVCLLNNFYPREAKVQWKVDNALQSGNSQESVTEQDSKDSTYSLSSTLTLSKADYEKHKVYACEVTHQGLSSPVTKSFNRGEC
Consider B3, for which the “fold weaker EC50 than on clone H3A9” value in experiment [2] and in experiment [3] was not above 5 fold in each case. In addition, the dissociation constant (Kd) in experiment [4] turned out to be 336 nM; in experiment [5], 165 nM; in experiment [6], 246 nM.

B4: Antibody A10 (antibody, human IgG1, kappa, L234A L235A)
heavy: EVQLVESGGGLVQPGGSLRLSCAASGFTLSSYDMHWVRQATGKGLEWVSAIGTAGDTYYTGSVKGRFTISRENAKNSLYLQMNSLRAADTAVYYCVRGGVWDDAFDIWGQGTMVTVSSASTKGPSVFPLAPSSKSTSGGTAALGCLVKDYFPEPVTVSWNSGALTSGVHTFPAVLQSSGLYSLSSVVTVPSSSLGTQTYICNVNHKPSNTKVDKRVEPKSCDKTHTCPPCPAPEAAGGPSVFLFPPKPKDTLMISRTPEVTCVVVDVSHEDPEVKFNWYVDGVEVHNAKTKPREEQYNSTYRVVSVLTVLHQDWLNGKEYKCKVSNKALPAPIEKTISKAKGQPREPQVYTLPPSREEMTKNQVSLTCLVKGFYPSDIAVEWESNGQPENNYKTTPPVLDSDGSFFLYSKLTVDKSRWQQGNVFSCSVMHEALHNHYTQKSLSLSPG
light: DIQMTQSPSSLSASVGDRVTITCRASQDINNYLAWFQQKPGKAPKSLIYTASSLHSGVPSKFSGSGSGTDFTLTISSLQPEDFATYYCQQYVSYPYTFGQGTKLEIKRTVAAPSVFIFPPSDEQLKSGTASVVCLLNNFYPREAKVQWKVDNALQSGNSQESVTEQDSKDSTYSLSSTLTLSKADYEKHKVYACEVTHQGLSSPVTKSFNRGEC
B4: the “fold weaker EC50 than on clone H3A9” value in experiment [2] and in experiment [3] was not above 5 fold each time. In addition, the dissociation constant (Kd) in experiment [4] was determined as 378 nM; in experiment [5], 180 nM; in experiment [6], 271 nM.

For orientation: Kd means the concentration at which binding is half-saturated.

Source of the values: patent US20230012273A1 (Boehringer Ingelheim, published 2023).
